Laboratory results taken from US20140294846.
Read-outs that look alike come from different tables or passages of the source.

Assays:
[1] = test system: versican in the ECM materials deposited by TA3 transfectants
[2] = molecular target: versican in the ECM materials deposited by TA3 transfectants; remark: listed apart in the source

Molecule | degradation of versican in ECM of TA3 transfectants (Western blot, anti-DP antibody) [1] | auto-proteolytic cleavage of purified ADAMTS-1 in vitro (Western blot, anti-v5) (P97857) | degradation of versican in ECM of TA3 transfectants (Western blot, anti-DP antibody) [2]
ADAMTS-1E/Q, protease-dead mutant of mouse ADAMTS-1 (E386 to Q), v5-epitope tagged | expression of ADAMTS-1E/Q but not ADAMTS-1NTF, ADAMTS-1CTF inhibits the degradation |  | 
full-length mouse ADAMTS-1, v5-epitope tagged (wild type) (protein) ARGAHGRPTEEDEELVLPSLERAPGHDSTTTRLRLDAFGQQLHLKLQPDSGFLAPGFTLQTVGRSPGSEAQHLDPTGDLAHCFYSGTVNGDPGSAAALSLCEGVRGAFYLQGEEFFIQPAPGVATERLAPAVPEEESSARPQFHILRRRRRGSGGAKCGVMDDETLPTSDSRPESQNTRNQWPVRDPTPQDAGKPSGPGSIRKKRFVSSPRYVETMLVADQSMADFHGSGLKHYLLTLFSVAARFYKHPSIRNSISLVVVKILVIYEEQKGPEVTSNAALTLRNFCSWQKQHNSPSDRDPEHYDTAILFTRQDLCGSHTCDTLGMADVGTVCDPSRSCSVIEDDGLQAAFTTAHELGHVFNMPHDDAKHCASLNGVSGDSHLMASMLSSLDHSQPWSPCSAYMVTSFLDNGHGECLMDKPQNPIKLPSDLPGTLYDANRQCQFTFGEESKHCPDAASTCTTLWCTGTSGGLLVCQTKHFPWADGTSCGEGKWCVSGKCVNKTDMKHFATPVHGSWGPWGPWGDCSRTCGGGVQYTMRECDNPVPKNGGKYCEGKRVRYRSCNIEDCPDNNGKTFREEQCEAHNEFSKASFGNEPTVEWTPKYAGVSPKDRCKLTCEAKGIGYFFVLQPKVVDGTPCSPDSTSVCVQGQCVKAGCDRIIDSKKKFDKCGVCGGNGSTCKKMSGIVTSTRPGYHDIVTIPAGATNIEVKHRNQRGSRNNGSFLAIRAADGTYILNGNFTLSTLEQDLTYKGTVLRYSGSSAALERIRSFSPLKEPLTIQVLMVGHALRPKIKFTYFMKKKTESFNAIPTFSEWVIEEWGECSKTCGSGWQRRVVQCRDINGHPASECAKEVKPASTRPCADLPCPHWQVGDWSPCSKTCGKGYKKRTLKCVSHDGGVLSNESCDPLKKPKHYIDFCTLTQCS |  | ADAMTS-1 was auto-proteolytically cleaved to release v5-epitope tagged C-terminal cleavage fragments | increased expression of exogenous ADAMTS-1 but not ADAMTS-1minusTSP-1 on top of the endogenous ADAMTS-1 promotes degradation of versican
